Reference: patent publication US20230399394A1 (SUNSHINE GUOJIAN PHARMACEUTICAL SHANGHAI, published 2023)

T1: IL-33 mutant protein E44A (human, UniProt O95760 112-270)
T1 construct: Prokaryotic expression
T1 chain: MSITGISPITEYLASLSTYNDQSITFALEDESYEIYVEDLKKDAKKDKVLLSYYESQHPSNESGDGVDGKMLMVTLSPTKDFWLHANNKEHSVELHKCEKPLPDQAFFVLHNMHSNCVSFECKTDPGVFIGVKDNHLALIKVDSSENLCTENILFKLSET

T2: IL-33 mutant protein E55A (human, UniProt O95760 112-270)
T2 construct: Prokaryotic expression
T2 chain: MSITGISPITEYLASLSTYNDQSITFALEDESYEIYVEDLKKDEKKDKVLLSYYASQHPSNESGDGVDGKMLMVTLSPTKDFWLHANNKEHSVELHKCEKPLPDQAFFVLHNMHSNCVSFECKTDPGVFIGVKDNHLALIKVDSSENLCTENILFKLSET

T3: IL-33 mutant protein K48A (human, UniProt O95760 112-270)
T3 construct: Prokaryotic expression
T3 chain: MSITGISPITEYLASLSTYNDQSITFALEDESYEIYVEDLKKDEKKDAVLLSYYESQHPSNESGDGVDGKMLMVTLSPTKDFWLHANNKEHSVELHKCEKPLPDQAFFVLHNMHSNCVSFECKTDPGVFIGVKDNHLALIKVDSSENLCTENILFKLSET

T4: IL-33 mutant protein V67A (human, UniProt O95760 112-270)
T4 construct: Prokaryotic expression
T4 chain: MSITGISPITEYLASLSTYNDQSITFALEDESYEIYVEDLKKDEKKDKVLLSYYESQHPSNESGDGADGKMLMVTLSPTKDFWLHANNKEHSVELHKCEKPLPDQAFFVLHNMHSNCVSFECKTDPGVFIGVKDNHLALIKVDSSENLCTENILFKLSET

T5: IL-33 protein without any mutation (WT) (human, UniProt O95760 112-270)
T5 construct: Control of the alanine scan (four runs WT-1 to WT-4); also called WT-1; WT-2
T5 sequence: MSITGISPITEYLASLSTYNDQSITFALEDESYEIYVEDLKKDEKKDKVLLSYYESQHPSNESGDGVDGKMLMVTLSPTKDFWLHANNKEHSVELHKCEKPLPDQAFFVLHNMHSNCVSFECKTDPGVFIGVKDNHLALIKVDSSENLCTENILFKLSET

T6: Pep1 (human, N-terminal biotin)
T6 construct: Synthetic 20-mer of human IL-33
T6 peptide: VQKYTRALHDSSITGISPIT

T7: Pep4 (human, N-terminal biotin)
T7 construct: Synthetic 20-mer of human IL-33
T7 peptide: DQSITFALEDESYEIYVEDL

T8: Pep6 (human, N-terminal biotin)
T8 construct: Synthetic 20-mer of human IL-33
T8 peptide: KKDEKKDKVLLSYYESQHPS

T9: Pep11 (human, N-terminal biotin)
T9 construct: Synthetic 20-mer of human IL-33
T9 peptide: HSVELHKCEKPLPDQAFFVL

T10: Pep12 (human, N-terminal biotin)
T10 construct: Synthetic 20-mer of human IL-33
T10 peptide: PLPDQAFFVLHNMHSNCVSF

T11: Pep14 (human, N-terminal biotin)
T11 construct: Synthetic 20-mer of human IL-33
T11 peptide: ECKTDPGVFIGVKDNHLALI


Key:
[1] = biological target: T1, IL-33 mutant protein E44A; assay: ELISA as Example 9; row E44A
Method: (§1) SA protein was diluted to 2 μg/mL to coat ELISA plate at 100 μL/well overnight at 4° C. The plate was washed with PBST (PBS containing 0.05% Tween20) for 3 times, and blocked with 2% BSA prepared in PBS at 200 μL/well, at room temperature for 2 h. After the plate was washed twice with PBST, IL-33-his-biotin protein was diluted to 1 μg/mL with 1% BSA prepared in PBST, and was added to ELISA plate at 100 μL/well. The plate was incubated at room temperature for 1 h, and each monoclonal antibody was diluted with 1% BSA prepared in PBST in a 3-fold gradient. The highest concentration of antibody was 10 μg/mL, and the antibody was diluted for 12 gradients. Each diluted monoclonal antibody was added to ELISA wells with 100 μL/well, and the plate was incubated at room temperature for 1 h. Each sample was added to duplicate wells in parallel. The plate was washed with PBST for 3 times, and HRP-anti human IgG Fc secondary antibody prepared with PBST was diluted at an appropriate ratio, and was added to ELISA wells at 100 μL/well. […] Each reaction solution was shaken uniformly and OD450 nm was read on a microplate reader. The data was analyzed and EC₅₀ was calculated.
(§2) Subsequently, according to the experimental method of Example 9, the affinity of the above mutant proteins to 874F7-Hu1 was determined, and IL-33 proteins (WT-1, WT-2, WT-3, and WT-4) without any mutation were set as controls.

[2] = biological target: T2, IL-33 mutant protein E55A; assay: ELISA as Example 9; row E55A
Method: as §1, §2

[3] = biological target: T3, IL-33 mutant protein K48A; assay: ELISA as Example 9; row K48A against WT-2
Method: as §1, §2

[4] = biological target: T4, IL-33 mutant protein V67A; assay: ELISA as Example 9; row V67A against WT-3
Method: as §1, §2

[5] = biological target: T5, IL-33 protein without any mutation (WT); assay: ELISA as Example 9; row WT-1, the reference itself
Method: as §1, §2

Pep1 = biological target: T6, Pep1; assay: ELISA, biotinylated peptide on streptavidin plate, antibody 10 µg/mL, well 1
Method: (§3) To determine the binding activity of antibody to each polypeptide fragment, the ELISA plate was pre-coated by biotin-avidin (SA) which was diluted in coating solution (50 mM carbonate coating buffer, pH 9.6) to 2 μg/ml at 4° C. overnight. The plate was washed with PBST for 3 times, and then blocked with 2% BSA prepared in PBS at room temperature for 2 h with 200 μL/well. The plate was washed once with PBST, and 864F3 and 874F7 with final concentrations of 10 μg/mL were added at 100 μL/well, respectively, and the plate was incubated at room temperature for 1 h. The plate was washed with PBST for 3 times, and the goat anti-mouse IgG labeled by HRP was added and placed at 37° C. for 30 min. After washing the plate with PBST for 3 times, the plate was patted on the absorbent paper to remove residual droplets as far as possible. 100 μl TMB developing solution was added to each well, and the plate was placed at room temperature (20±5° C.) for 5 minutes away from light; 50 μl 2M H₂SO₄ terminating solution was added to each well to terminate the substrate reaction. OD values were read at 450 nm on the microplate reader to analyze the binding ability of the antibody to each polypeptide fragment. The experimental results are shown in […]

Pep4 = biological target: T7, Pep4; assay: as above
Method: as §3

Pep6 = biological target: T8, Pep6; assay: as above
Method: as §3

Pep11 = biological target: T9, Pep11; assay: as above
Method: as §3

Pep12 = biological target: T10, Pep12; assay: as above
Method: as §3

Pep14 = biological target: T11, Pep14; assay: as above
Method: as §3

| EC50 [1] [nM] | EC50 [2] [nM] | Affinity decline ratio [3] [fold] | Affinity decline ratio [4] [fold] | Affinity decline ratio [5] [fold] | OD450 (Pep1) [OD450] | OD450 (Pep4) [OD450] | OD450 (Pep6) [OD450] | OD450 (Pep11) [OD450] | OD450 (Pep12) [OD450] | OD450 (Pep14) [OD450] | Binder |
| --- | --- | --- | --- | --- | --- | --- | --- | --- | --- | --- | --- |
| 0.13 | 0.33 | 3.7 | 0.6 | 1 | – | – | – | – | – | – | 874F7-Hu1 (antibody, human IgG4 S228P, kappa, also called 874F7-Hul; humanized antibody 874F7-Hu1) heavy: not shown light: DIQMTQSPSSVSASVGDRVTITCLASQTIGAWLAWYQQKPGKSPKLLIYAATRLADGVPSRFSGSGSGTDFTLTISSLQPEDFATYYCQQLDSSPYTFGQGTKVEIKRTVAAPSVFIFPPSDEQLKSGTASVVCLLNNFYPREAKVQWKVDNALQSGNSQESVTEQDSKDSTYSLSSTLTLSKADYEKHKVYACEVTHQGLSSPVTKSFNRGEC |
| – | – | – | – | – | 0.074 | 0.05 | 1.04 | 0.056 | 0.056 | 0.059 | 874F7 (antibody, V domains shown, Murine hybridoma antibody purified on Protein G; also called murine antibody 874F7) VH: QVQLKESGPGLVAPSHSLSITCNVSGFSLSKYGVHWIRQIPGRGLDWLGVLRAGGSTGYNSALMSRLSISKDSSKSQVFLKMNDLRTDDTAVYFCVRDHYYYSSYGGFVYWGQGTLVTVSA VL: DIQMTQSPASQSASLGESVTITCLASQTIGAWLAWYRQQPGKSPQLLIYAATRLADGVPSRFSGSGSGTEFSFKINNLQAEDFVSYYCQQLDSSPYTFGGGTRLEM |
